The results in this text go back to doi:10.1101/2020.08.11.243964.

The assay has as its target Human connexin 26 protein (hCx26) (human) (UniProt P29033). The assay is described as follows: cryo-EM structure.

Broadly, the stoichiometry N is the number of molecules, sites or subunits per partner or assembly. The substance “Human connexin 26 protein (hCx26) (from UniProt P29033) (natural protein)” showed a stoichiometry N of 12.
